From patent US20230190881A1 (BIOTEST, published 2023)

Biological target: T1, human serum albumin (HSA) (human, UniProt P02768 25-609)
T1 construct: also called human albumin; Albiomin 20%
Experiment: FVIII antigen ELISA on plasma samples; albumin binding inferred from reduced detection

Row | Binder | binding result
1 | AD2CD2-19M_SC (other, also called de-immunized FVIII-ABD fusion molecule) ATRRYYLGAVELSWDYMQSDLGELPVDARFPPRVPKSFPFNTSVVYKKTLFVEFTDHLFSIAKPRPPWMGLLGPTIQAEVYDTVVITLKNMATHPVSLHAVGVSYWKASEGAEYDDQTSQREKEDDKVFPGGSHTYVWQVSKENGPMASDPQCLTYSYLSHVDLAKDLNSGLIGALLVCREGSLAKEKTQTLHKFILLFAVFDEGKSWHSETKDSLMQDRDAASARAWPKMHTVNGYVNRSLPGLTGCHRKSVYWHVIGMGTTPEVHSIFLEGHTFLVRDHRQASLEISPITFLTAQTLLMDLGQFLLFCHISSHQHDGMEAYVKVDSCPEEPQLRMKNNEEAEDYDDDLTDSEMDVVRFDDDNSPSFIQIRSVAKKHPKTWVHYIAAEEEDWDYAPLVLAPDDRSHKSQYLNNGPQRIGRKYKKVRFMAYTDETFKTREAIQHESGILGPLLYGEVGDTLLIIFKNQASRPYNIYPHGITDVRPLYERRLPKGVKHLKDFPILPGEIFKYKWTVTVEDGPTKSDPRCLTRYYSSHVNMERDLASGLIGPLLICYKESVDQRGNQIMSDKRNVILFSVFDENRSWYLTENIQRFLPEPAGVQLEDPEFQASNIMHSINGYVFDSLQLSVCLHEVAYWYILSIGAQTDFLSVFFSGYTFKHKMVYEDTLTLFPFSGETVFMSMENPGNWILGCHNSDFRNRGMTALLKVSSCDKNTGDYYEDSYEDISASLLSKNNAIEPRSFSQNPPVLSKNNAIEPRSFSQNSRHPSLAEAKEAANAELDSYGVSDFYKRLIDKAKTVEGVEALKDAILAALPGSGGSGGSGGSGSGSKNNAIEPRSFSQNSRHPSGSGGSGGSGGSGSLAEAKEAANAELDSYGVSDFYKRLIDKAKTVEGVEALKDAILAALPSKNNAIEPRSFSQNSRHPSQSDQEEIDYDDTISVEMKKEDFDIYDEDENQSPRSFQKKTRHYFIAAVERLWDYGMSSSPHVLRNRAQSGSVPQFKKVVFQEFTDGSFTQPLYRGELNEHLGLLGPYIRAEVEDNIMVTFRNQASRPYSFYSSLISYEEDQRQGAEPRKNFVKPNETKTYFWEVQHHMAPTKDEFDCKAWAYFSDVDLEKDVHSGLIGPLLVCHTNTLNPAHGRQVTVQEFALFFTIFDETKSWYFTENMERNCRAPCNIQMEDPTFKENYRFHAINGYIMDTLPGLVMAQDQRIRWYLLSMGSNENIHSIHFSGHVFTVRKKEEYKMALYNLYPGVFETVEMLPSKAGIWRVECLIGEHLHAGMSTLFLVYSDKCQTPLGMASGHIRDFQITASGQYGQWAPKLARLHYSGGINAWSTKEPFSWIKVDLLAPMIIHGIKTQGARQKFSSLYISQFIIMYSLDGKKWQTYRGNSTGTLMVFFGNVDSSGIKHNIFNPPIIARYIRLHPTHYSIRSTLRMELMGCDLNSCSMPLGMESKAISDAQITASSYFTNMFATWSPSKARLHLQGRSNAWRPQVNNPKEWLQVDFQKTMKVTGVTTQGVKSLLTSMYVKEFLISSSQDGHQWTLFFQNGKVKVFQGNQDSFTPVVNTLDPPLLTRYLRIHPQSWAHQIALRMEVLGCEAQDLYSKNNAIEPRSFSQNSRHPSLAEAKEAANAELDSYGVSDFYKRLIDKAKTVEGVEALKDAILAALPGSGGSGGSGGSGSGSKNNAIEPRSFSQNSRHPSGSGGSGGSGGSGSLAEAKEAANAELDSYGVSDFYKRLIDKAKTVEGVEALKDAILAALP | binds
2 | AD2CD2_SC (other) ATRRYYLGAVELSWDYMQSDLGELPVDARFPPRVPKSFPFNTSVVYKKTLFVEFTDHLFNIAKPRPPWMGLLGPTIQAEVYDTVVITLKNMASHPVSLHAVGVSYWKASEGAEYDDQTSQREKEDDKVFPGGSHTYVWQVLKENGPMASDPLCLTYSYLSHVDLVKDLNSGLIGALLVCREGSLAKEKTQTLHKFILLFAVFDEGKSWHSETKNSLMQDRDAASARAWPKMHTVNGYVNRSLPGLIGCHRKSVYWHVIGMGTTPEVHSIFLEGHTFLVRNHRQASLEISPITFLTAQTLLMDLGQFLLFCHISSHQHDGMEAYVKVDSCPEEPQLRMKNNEEAEDYDDDLTDSEMDVVRFDDDNSPSFIQIRSVAKKHPKTWVHYIAAEEEDWDYAPLVLAPDDRSYKSQYLNNGPQRIGRKYKKVRFMAYTDETFKTREAIQHESGILGPLLYGEVGDTLLIIFKNQASRPYNIYPHGITDVRPLYSRRLPKGVKHLKDFPILPGEIFKYKWTVTVEDGPTKSDPRCLTRYYSSFVNMERDLASGLIGPLLICYKESVDQRGNQIMSDKRNVILFSVFDENRSWYLTENIQRFLPNPAGVQLEDPEFQASNIMHSINGYVFDSLQLSVCLHEVAYWYILSIGAQTDFLSVFFSGYTFKHKMVYEDTLTLFPFSGETVFMSMENPGLWILGCHNSDFRNRGMTALLKVSSCDKNTGDYYEDSYEDISAYLLSKNNAIEPRSFSQNPPVLSKNNAIEPRSFSQNSRHPSLAEAKEAANAELDSYGVSDFYKRLIDKAKTVEGVEALKDAILAALPGSGGSGGSGGSGSGSKNNAIEPRSFSQNSRHPSGSGGSGGSGGSGSLAEAKEAANAELDSYGVSDFYKRLIDKAKTVEGVEALKDAILAALPSKNNAIEPRSFSQNSRHPSQSDQEEIDYDDTISVEMKKEDFDIYDEDENQSPRSFQKKTRHYFIAAVERLWDYGMSSSPHVLRNRAQSGSVPQFKKVVFQEFTDGSFTQPLYRGELNEHLGLLGPYIRAEVEDNIMVTFRNQASRPYSFYSSLISYEEDQRQGAEPRKNFVKPNETKTYFWKVQHHMAPTKDEFDCKAWAYFSDVDLEKDVHSGLIGPLLVCHTNTLNPAHGRQVTVQEFALFFTIFDETKSWYFTENMERNCRAPCNIQMEDPTFKENYRFHAINGYIMDTLPGLVMAQDQRIRWYLLSMGSNENIHSIHFSGHVFTVRKKEEYKMALYNLYPGVFETVEMLPSKAGIWRVECLIGEHLHAGMSTLFLVYSNKCQTPLGMASGHIRDFQITASGQYGQWAPKLARLHYSGSINAWSTKEPFSWIKVDLLAPMIIHGIKTQGARQKFSSLYISQFIIMYSLDGKKWQTYRGNSTGTLMVFFGNVDSSGIKHNIFNPPIIARYIRLHPTHYSIRSTLRMELMGCDLNSCSMPLGMESKAISDAQITASSYFTNMFATWSPSKARLHLQGRSNAWRPQVNNPKEWLQVDFQKTMKVTGVTTQGVKSLLTSMYVKEFLISSSQDGHQWTLFFQNGKVKVFQGNQDSFTPVVNSLDPPLLTRYLRIHPQSWVHQIALRMEVLGCEAQDLYSKNNAIEPRSFSQNSRHPSLAEAKEAANAELDSYGVSDFYKRLIDKAKTVEGVEALKDAILAALPGSGGSGGSGGSGSGSKNNAIEPRSFSQNSRHPSGSGGSGGSGGSGSLAEAKEAANAELDSYGVSDFYKRLIDKAKTVEGVEALKDAILAALP | binds
